Here are results for 71 sequences from PMC4434323.

For data set [1], the target named is ZC328.2 (ZC328.2) (Caenorhabditis elegans) (UniProt O02050).
The target in data set [2] is T1, egrh-3 (Y94H6A.11) (Caenorhabditis elegans) (UniProt U4PLQ8).
T1 sequence: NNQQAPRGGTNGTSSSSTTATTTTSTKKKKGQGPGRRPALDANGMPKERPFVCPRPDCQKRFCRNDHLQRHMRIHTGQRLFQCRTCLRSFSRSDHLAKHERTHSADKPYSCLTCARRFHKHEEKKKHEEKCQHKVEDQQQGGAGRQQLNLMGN

The target of data set [3] is T2, Y53H1A.2 (Y53H1A.2) (Caenorhabditis elegans) (UniProt B1V8K4).
T2 sequence: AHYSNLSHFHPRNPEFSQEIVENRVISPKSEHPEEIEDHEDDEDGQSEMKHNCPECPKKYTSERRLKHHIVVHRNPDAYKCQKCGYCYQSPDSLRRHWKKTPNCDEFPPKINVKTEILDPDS

Data set [4] addresses T3, Y48G1C.6 (Y48G1C.6) (Caenorhabditis elegans) (UniProt Q9N3P2).
T3 sequence: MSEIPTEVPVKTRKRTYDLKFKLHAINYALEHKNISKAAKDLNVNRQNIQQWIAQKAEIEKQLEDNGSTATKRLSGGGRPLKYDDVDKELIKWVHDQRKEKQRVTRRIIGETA

Data set [5] deals with ztf-11 (F52F12.6) (Caenorhabditis elegans) (UniProt O02274).
Data set [6] has as its target T4, C27D6.4 (C27D6.4) (Caenorhabditis elegans) (UniProt Q4JFH9).
T4 sequence: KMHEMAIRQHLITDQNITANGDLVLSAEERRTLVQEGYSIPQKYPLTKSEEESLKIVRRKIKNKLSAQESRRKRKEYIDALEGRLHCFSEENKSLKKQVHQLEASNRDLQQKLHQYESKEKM

For data set [7], the target named is T5, ZK337.2 (ZK337.2) (Caenorhabditis elegans) (UniProt O46016).
T5 sequence: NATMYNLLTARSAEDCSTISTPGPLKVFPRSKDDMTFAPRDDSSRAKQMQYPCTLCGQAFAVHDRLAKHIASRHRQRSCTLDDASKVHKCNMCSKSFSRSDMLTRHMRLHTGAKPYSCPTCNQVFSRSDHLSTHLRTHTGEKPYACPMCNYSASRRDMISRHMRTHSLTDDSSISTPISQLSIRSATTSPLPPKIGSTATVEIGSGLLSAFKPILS

In data set [8] the test system is T6, syd-9 (ZK867.1) (Caenorhabditis elegans).
T6 sequence: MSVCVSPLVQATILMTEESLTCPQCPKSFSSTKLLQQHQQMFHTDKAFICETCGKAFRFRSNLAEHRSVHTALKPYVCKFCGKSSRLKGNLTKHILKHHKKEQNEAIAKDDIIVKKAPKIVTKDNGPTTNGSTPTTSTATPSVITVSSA

For data set [9], the target named is T7, ztf-29 (Y66D12A.12) (Caenorhabditis elegans) (UniProt Q95Q03).
T7 sequence: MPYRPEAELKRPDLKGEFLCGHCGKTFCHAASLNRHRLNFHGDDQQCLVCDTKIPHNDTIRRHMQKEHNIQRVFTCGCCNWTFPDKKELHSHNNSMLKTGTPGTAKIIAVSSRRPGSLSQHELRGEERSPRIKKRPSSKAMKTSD

ztf-11 (F52F12.6) (Caenorhabditis elegans), sequence (O02274 212-388): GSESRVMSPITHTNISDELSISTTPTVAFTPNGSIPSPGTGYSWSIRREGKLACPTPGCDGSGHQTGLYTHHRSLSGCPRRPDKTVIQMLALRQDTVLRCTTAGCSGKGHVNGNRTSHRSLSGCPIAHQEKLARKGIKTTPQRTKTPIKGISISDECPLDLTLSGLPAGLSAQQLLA
ZC328.2 (ZC328.2) (Caenorhabditis elegans), sequence (O02050 entry or part of it): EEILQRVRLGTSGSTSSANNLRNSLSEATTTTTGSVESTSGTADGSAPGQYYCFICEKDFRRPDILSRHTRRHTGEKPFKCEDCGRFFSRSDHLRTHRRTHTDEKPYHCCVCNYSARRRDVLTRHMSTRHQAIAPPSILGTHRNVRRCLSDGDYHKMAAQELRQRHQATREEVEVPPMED

“CCCCCCGC (double strand) [8-mer CCCCCCGC]” returned a binding signal (PBM E-score (-0.5 to 0.5)) in [1] of 0.486.
Consider “GCCCCCCC (double strand) [8-mer GCCCCCCC]”, for which, in data set [2], the binding signal (PBM E-score (-0.5 to 0.5)) turned out to be 0.496.
For “CGCCCACC (double strand) [8-mer CGCCCACC]”, the binding signal (PBM E-score (-0.5 to 0.5)) in [1] and in data set [3] was 0.484 in each case.
For the sequence “ACTGCAAG (double strand) [8-mer ACTGCAAG]”, in [4], the binding signal (PBM E-score (-0.5 to 0.5)) was 0.493.
For the sequence “AAACTTCG (double strand) [8-mer AAACTTCG]”, the binding signal (PBM E-score (-0.5 to 0.5)) in data set [5] is 0.487.
Take “CCCCCCCA (double strand) [8-mer CCCCCCCA]”: the binding signal (PBM E-score (-0.5 to 0.5)) in data set [2] turned out to be 0.496.
In data set [2], “GGGGGGAA (double strand) [8-mer GGGGGGAA]” registered a binding signal (PBM E-score (-0.5 to 0.5)) of 0.493.
“CATGCAAG (double strand) [8-mer CATGCAAG]” returned a binding signal (PBM E-score (-0.5 to 0.5)) in [4] of 0.496.
Take “ACACGTGG (double strand) [8-mer ACACGTGG]”: in [6], the binding signal (PBM E-score (-0.5 to 0.5)) came out at 0.498.
“CACCCACG (double strand) [8-mer CACCCACG]” returned a binding signal (PBM E-score (-0.5 to 0.5)) in data set [7] of 0.484.
Consider “CAAACTTC (double strand) [8-mer CAAACTTC]”, for which the binding signal (PBM E-score (-0.5 to 0.5)) in data set [5] amounted to 0.48.
As to “AACTTTTG (double strand) [8-mer AACTTTTG]”, the binding signal (PBM E-score (-0.5 to 0.5)) in [5] was 0.48.
Turning to “GGGGGAGA (double strand) [8-mer GGGGGAGA]”, the binding signal (PBM E-score (-0.5 to 0.5)) in data set [2] stood at 0.493.
In data set [6], “ACGTGGAT (double strand) [8-mer ACGTGGAT]” showed a binding signal (PBM E-score (-0.5 to 0.5)) of 0.492.
In the case of “GAACTGTA (double strand) [8-mer GAACTGTA]”, in [8], the binding signal (PBM E-score (-0.5 to 0.5)) turned out to be 0.492.
“CACGTGTC (double strand) [8-mer CACGTGTC]”: in data set [6], the binding signal (PBM E-score (-0.5 to 0.5)) came to 0.496.
“AAACTTGC (double strand) [8-mer AAACTTGC]”: the binding signal (PBM E-score (-0.5 to 0.5)) in [5] stood at 0.485.
Turning to “AAGTTTGC (double strand) [8-mer AAGTTTGC]”, in [5], the binding signal (PBM E-score (-0.5 to 0.5)) was 0.483.
Sequence “AAGTTTTC (double strand) [8-mer AAGTTTTC]” yielded a binding signal (PBM E-score (-0.5 to 0.5)) in data set [5] of 0.48.
In [6], “CACGTGTA (double strand) [8-mer CACGTGTA]” returned a binding signal (PBM E-score (-0.5 to 0.5)) of 0.494.
For the sequence “CGCCCCCC (double strand) [8-mer CGCCCCCC]”, the binding signal (PBM E-score (-0.5 to 0.5)) in data set [1] came out at 0.487.
In turn, “CTTGCACC (double strand) [8-mer CTTGCACC]” came in with a binding signal (PBM E-score (-0.5 to 0.5)) in data set [4] of 0.494.
In turn, “ACTTGCAT (double strand) [8-mer ACTTGCAT]” returned a binding signal (PBM E-score (-0.5 to 0.5)) in [4] of 0.493.
The sequence “GCCCCCGC (double strand) [8-mer GCCCCCGC]” yielded a binding signal (PBM E-score (-0.5 to 0.5)) in data set [7] of 0.489.
On to “AGTGCAAG (double strand) [8-mer AGTGCAAG]”, for which, in data set [4], the binding signal (PBM E-score (-0.5 to 0.5)) is 0.493.
Sequence “CCGCCCCC (double strand) [8-mer CCGCCCCC]” displayed a binding signal (PBM E-score (-0.5 to 0.5)) in data set [7] of 0.495.
On to “CGCCCACA (double strand) [8-mer CGCCCACA]”, for which the binding signal (PBM E-score (-0.5 to 0.5)) in [7] was found to be 0.484.
In data set [8], “GACTGTAC (double strand) [8-mer GACTGTAC]” registered a binding signal (PBM E-score (-0.5 to 0.5)) of 0.49.
“ACGTGTCA (double strand) [8-mer ACGTGTCA]”: the binding signal (PBM E-score (-0.5 to 0.5)) in data set [6] is 0.495.
Consider “AACTTGCA (double strand) [8-mer AACTTGCA]”, for which the binding signal (PBM E-score (-0.5 to 0.5)) in data set [4] turned out to be 0.494.
In data set [6], “GACGTGGC (double strand) [8-mer GACGTGGC]” came in with a binding signal (PBM E-score (-0.5 to 0.5)) of 0.494.
“AAACTTTG (double strand) [8-mer AAACTTTG]” displayed a binding signal (PBM E-score (-0.5 to 0.5)) in data set [5] of 0.481.
The sequence “AGGGGGGG (double strand) [8-mer AGGGGGGG]” displayed a binding signal (PBM E-score (-0.5 to 0.5)) in data set [2] of 0.498.
The same measure, in the same setting: in the case of “CCCCCCAC (double strand) [8-mer CCCCCCAC]” it was 0.495; in that of “GGGGGGGA (double strand) [8-mer GGGGGGGA]”, 0.499.
Same read-out and setting: under “AGGGGGGA (double strand) [8-mer AGGGGGGA]” stands 0.493.
In [5], “GAAACTTC (double strand) [8-mer GAAACTTC]” had a binding signal (PBM E-score (-0.5 to 0.5)) of 0.481.
As for “GTGCAAGA (double strand) [8-mer GTGCAAGA]”, the binding signal (PBM E-score (-0.5 to 0.5)) in data set [4] is 0.494.
Regarding “ACCCCCCC (double strand) [8-mer ACCCCCCC]”, in [2], the binding signal (PBM E-score (-0.5 to 0.5)) stood at 0.497.
Take “GTCTTGCA (double strand) [8-mer GTCTTGCA]”: in data set [4], the binding signal (PBM E-score (-0.5 to 0.5)) came to 0.494.
The sequence “AAAGTTTG (double strand) [8-mer AAAGTTTG]” came in with a binding signal (PBM E-score (-0.5 to 0.5)) in [5] of 0.494.
“ACTGTACA (double strand) [8-mer ACTGTACA]” had a binding signal (PBM E-score (-0.5 to 0.5)) in data set [8] of 0.494.
“ACACGTGT (double strand) [8-mer ACACGTGT]” displayed a binding signal (PBM E-score (-0.5 to 0.5)) in [6] of 0.497.
Sequence “AACTGTAC (double strand) [8-mer AACTGTAC]” registered a binding signal (PBM E-score (-0.5 to 0.5)) in data set [8] of 0.492.
Turning to “CCCCACGC (double strand) [8-mer CCCCACGC]”, the binding signal (PBM E-score (-0.5 to 0.5)) in data set [1] was 0.485.
Consider “AAGTTTGA (double strand) [8-mer AAGTTTGA]”, for which the binding signal (PBM E-score (-0.5 to 0.5)) in data set [5] is 0.48.
Take “ACTGTAAT (double strand) [8-mer ACTGTAAT]”: in [8], the binding signal (PBM E-score (-0.5 to 0.5)) was 0.489.
For the sequence “ACGTGGCG (double strand) [8-mer ACGTGGCG]”, the binding signal (PBM E-score (-0.5 to 0.5)) in data set [6] is 0.498.
With “AGGGGGAG (double strand) [8-mer AGGGGGAG]”, the binding signal (PBM E-score (-0.5 to 0.5)) in data set [2] stood at 0.493.
Turning to “CCTCCCCC (double strand) [8-mer CCTCCCCC]”, the binding signal (PBM E-score (-0.5 to 0.5)) in data set [2] was determined as 0.496.
“CAAACTTG (double strand) [8-mer CAAACTTG]” came in with a binding signal (PBM E-score (-0.5 to 0.5)) in data set [5] of 0.487.
The sequence “CCACCCCC (double strand) [8-mer CCACCCCC]” had a binding signal (PBM E-score (-0.5 to 0.5)) in data set [7] of 0.485.
As to “AAGTTTCG (double strand) [8-mer AAGTTTCG]”, the binding signal (PBM E-score (-0.5 to 0.5)) in data set [5] worked out at 0.483.
In data set [8], “ACTGTACG (double strand) [8-mer ACTGTACG]” returned a binding signal (PBM E-score (-0.5 to 0.5)) of 0.491.
The sequence “AAGTTTGT (double strand) [8-mer AAGTTTGT]” displayed a binding signal (PBM E-score (-0.5 to 0.5)) in data set [5] of 0.487.
Sequence “CCCCCCTC (double strand) [8-mer CCCCCCTC]” returned a binding signal (PBM E-score (-0.5 to 0.5)) in data set [2] of 0.497.
The sequence “CCCCCACG (double strand) [8-mer CCCCCACG]” returned a binding signal (PBM E-score (-0.5 to 0.5)) in data set [1] of 0.48.
“CCCCCCCC (double strand) [8-mer CCCCCCCC]” showed a binding signal (PBM E-score (-0.5 to 0.5)) in data set [2] of 0.5.
For “AAGCTTGT (double strand) [8-mer AAGCTTGT]”, in data set [9], the binding signal (PBM E-score (-0.5 to 0.5)) is 0.489.
The sequence “AAAAGTTT (double strand) [8-mer AAAAGTTT]” registered a binding signal (PBM E-score (-0.5 to 0.5)) in data set [5] of 0.492.
In data set [7], “CCACCCAC (double strand) [8-mer CCACCCAC]” gave a binding signal (PBM E-score (-0.5 to 0.5)) of 0.491.
With “ACTGTACC (double strand) [8-mer ACTGTACC]”, in data set [8], the binding signal (PBM E-score (-0.5 to 0.5)) was 0.489.
With “AAGTTTGG (double strand) [8-mer AAGTTTGG]”, the binding signal (PBM E-score (-0.5 to 0.5)) in data set [5] was determined as 0.485.
Consider “CACCCCCA (double strand) [8-mer CACCCCCA]”, for which the binding signal (PBM E-score (-0.5 to 0.5)) in data set [7] was 0.482.
In turn, “AAGGGGGG (double strand) [8-mer AAGGGGGG]” registered a binding signal (PBM E-score (-0.5 to 0.5)) in data set [2] of 0.495.
Take “CACGTGGA (double strand) [8-mer CACGTGGA]”: in data set [6], the binding signal (PBM E-score (-0.5 to 0.5)) worked out at 0.495.
Turning to “CTCCCCCC (double strand) [8-mer CTCCCCCC]”, the binding signal (PBM E-score (-0.5 to 0.5)) in data set [2] was 0.497.
The sequence “CCGCCTAC (double strand) [8-mer CCGCCTAC]” registered a binding signal (PBM E-score (-0.5 to 0.5)) in data set [1] of 0.488.
“AAAAGCTT (double strand) [8-mer AAAAGCTT]” gave a binding signal (PBM E-score (-0.5 to 0.5)) in data set [9] of 0.492.
“CGGCCGAC (double strand) [8-mer CGGCCGAC]” showed a binding signal (PBM E-score (-0.5 to 0.5)) in data set [3] of 0.486.
In data set [3], “CGGTGGGC (double strand) [8-mer CGGTGGGC]” displayed a binding signal (PBM E-score (-0.5 to 0.5)) of 0.491.
